From US20230329245A1, “COMPOSITIONS AND METHODS OF USE THEREOF” (Curie Co. Inc., priority 2020, published 2023)
Several values for one entry are separate records, joined by “and”; a condition that tells them apart may be missing. Equal values may be shown once.

Legend:
Type in all cases: cell-based
E. coli ATCC 8739 = assay: MIC determination, E. coli; conditions: CAMHB pH 7.3, 37° C., 18 to 20 hours, duplicate
Protocol: (§1) A variant form of Streptomyces mobaraensis transglutaminase having the amino acid sequence depicted in SEQ ID NO:6 was prepared by literature methods with a hexa-his-tag to aid in purification (Javitt, et al. (2017) BMC Biotechnol. 17:23). The cells were grown in shake flasks, lysed by homogenization, and the Tgase variant (SEQ ID NO:6) was isolated from the cell debris by centrifugation. The resulting semi-purified enzyme (clarified lysate) were compared on an SDS-PAGE gel, by spectroscopy, and activity for concentration of active enzyme. The Tgase variant (SEQ ID NO:6) was further purified by affinity column on a Ni-IMAC resin prior to MIC assay. Tgase activity was measured in the examples herein using a colorimetric hydroxamate activity assay (Folk and Cole (1965) J Biol Chemistry 240(7):2951-2960). The enzyme was diluted to a working stock concentration of 2 mg/mL in CAMHB or RPMI media (bacterial or fungal media). This was then 2-fold serial diluted ten times in the appropriate media in a 96-well master plate to generate 2× starting concentrations for MIC testing.
(§2) Strains were acquired from the American Type Culture Collection (ATCC) (Manassas, VA) and maintained as −80° C. frozen glycerol stocks: S. aureus ATCC 6538, E. coli ATCC 8739, P. aeruginosa ATCC 9027, C. albicans ATCC 10231, and A. brasiliensis ATCC 16404. B. subtilis BGSC 1A1276 was purchased from the Bacillus Genetic Stock Center (BGSC) (Columbus, OH) and maintained as −80° C. frozen glycerol stock. Cation-adjusted Mueller-Hinton broth (CAMHB) at pH 7.3 was used for testing with bacterial species (unless otherwise noted), while RPMI 1640 media buffered with 0.165 M MOPS at pH 7.0 was used for testing with all fungal species.
For MIC determination, bacterial strains (S. aureus ATCC 6538, E. coli ATCC 8739, P. aeruginosa ATCC 9027) were grown overnight on Tryptic Soy Agar (TSA) plates at 37° C. A few colonies of each strain were collected with a sterile swab and used to make a McFarland 0.5 standard solution (approximately 1×10^8 CFU/mL) in sterile PBS. The McFarland solution was then diluted 1:100 in CAMHB to generate the inoculum, and 50 μL of this inoculum was combined with 50 μL of the 2× test article in a 96-well plate for a final concentration of 1×. All test conditions were performed in duplicate. The bacterial-strain MIC 96-well plates were incubated at 37° C. for 18 to 20 hours. MIC is defined as the lowest concentration of a compound in which no visible growth is observed.

[1] = tested on: A. brasiliensis ATCC 16404; assay: MIC determination, A. brasiliensis; conditions: RPMI 1640 pH 7.0, 25° C., up to 7 days, duplicate
Protocol: as §1, with “testing. […]” for “testing.”
C. albicans MIC 96-well plate was incubated for 37° C. for 24 to 48 hours. […] After incubation, all 96-well plates were examined visually and on a spectrophotometer at absorbance OD650. […]

C. albicans ATCC 10231 = assay: Growth reduction of C. albicans culture (OD600 / BacTiter-Glo); conditions: C. albicans ATCC 10231
Protocol: For MIC determination of yeast cultures, C. albicans ATCC 10231 was grown overnight (24 hours) in YPD media at 30° C. The following day, the cell density of the saturated cultures was calculated using OD600 and cultures were diluted to 10^4 to 10^6 CFU/mL in sterile YPD media to generate the inoculum, and 90 μL of the inoculum was combined with 10 μL of serially diluted Tgase SEQ ID NO:1 at a range of 0.0001-0.01 weight percent. The cultures were grown overnight at 30° C. and growth curves were measured by OD600 on a BioTek® Synergy Plate Reader. Optionally, the following day, a cell viability assay such as BacTiter-Glo™ (Promega®) following manufacturer's protocols) could be used to assess cell viability. A decrease in OD600 or luminescence indicated a decrease in cell viability. Results are presented as a percent reduction in cell count relative to an untreated culture. All test conditions were performed in triplicate.
Yeast or bacterial starter cultures were grown as described previously. Tgase (SEQ ID NO:6) was added to each culture at 0.001-1 weight percent. The cultures were grown overnight at 30° C.-37° C. and growth curves were measured by a BioTek® Synergy Plate Reader.

P. aeruginosa ATCC 9027 = assay: MIC determination, P. aeruginosa; conditions: CAMHB pH 7.3, 37° C., 18 to 20 hours, duplicate
Protocol: as §1, §2
For MIC determination, bacterial strains (S. aureus ATCC 6538, E. coli ATCC 8739, P. aeruginosa ATCC 9027) were grown overnight on Tryptic Soy Agar (TSA) plates at 37° C. A few colonies of each strain were collected with a sterile swab and used to make a McFarland 0.5 standard solution (approximately 1×10^8 CFU/mL) in sterile PBS. […]

[2] = tested on: C. parapsilosis ATCC 22019; assay: Minimum fungicidal concentration (MFC), C. parapsilosis; conditions: no colonies recovered, duplicate, listed as Tgase variant (SEQ ID NO: 6)
S. aureus ATCC 6538 = assay: MIC determination, S. aureus; conditions: CAMHB pH 7.3, 37° C., 18 to 20 hours, duplicate
Protocol: as §1
Strains were acquired from the American Type Culture Collection (ATCC) (Manassas, VA) and maintained as −80° C. frozen glycerol stocks: S. aureus ATCC 6538, E. coli ATCC 8739, P. aeruginosa ATCC 9027, C. albicans ATCC 10231, and A. brasiliensis ATCC 16404. […]

B1: Tgase (SEQ ID NO: 6): variant Streptomyces mobaraensis transglutaminase (SEQ ID NO:2) with N-terminal Methionine, C-terminal peptide linker and hexa-His-Tag (protein)
chain: MDPDDRVTPPAEPLDRMPDPYRPSYGRAETVVNNYIRKWQQVYSHRDGRKQQMTEEQREWLSYGCVGVTWVNSGQYPTNRLAFASFDEDRFKNELKNGRPRSGETRAEFEGRVAKESFDEEKGFQRAREVASVMNRALENAHDESAYLDNLKKELANGNDALRNEDARSPFYSALRNTPSFKERNGGNHDPSRMKAVIYSKHFWSGQDRSSSADKRKYGDPDAFRPAPGTGLVDMSRDRNIPRSPTSPGEGFVNFDYGWFGAQTEADADKTVWTHGNHYHAPNGSLGAMHVYESKFRNWSEGYSDFDRGAYVITFIPKSWNTAPDKVKQGWPLEHHHHHH
MIC (E. coli ATCC 8739): >1,000 μg/mL | MIC [1]: 62.5 µg/mL | Fold improvement in enzyme efficacy (C. albicans ATCC 10231; Tgase (SEQ ID NO: 1) = 1): 10 | Percent Growth Reduction (C. albicans ATCC 10231; enzyme concentration 80 ug/mL): 99.95% | MIC (P. aeruginosa ATCC 9027): >1,000 μg/mL | MFC [2]: 250 µg/mL and 125 µg/mL | MIC (S. aureus ATCC 6538): >1,000 μg/mL
